Results reported in EP4745153A1, “GLP-1, GIP AND GCG RECEPTOR […] USE THEREOF” (Jiangsu Hengrui Pharmaceuticals Co., Ltd., priority 2023, dated 2025).
Like-named read-outs stand apart in the source and are kept apart here. Starred links: 1 amine or outer side, 2 acyl side, 3 side chain; linkers in the order of their positions; H or OH if unused. Non-standard residues stand in square brackets, D forms with d. Groups on a side chain read outwards from the residue. No end group written: not given here. *: point of attachment. C20 diacid = O=C(O)CCCCCCCCCCCCCCCCCCC(=O)*; C17 diacid = O=C(O)CCCCCCCCCCCCCCCC(=O)*; γGlu = O=C(O)[C@H](CCC(=O)[*:2])N[*:1]; αMeK = C[C@](N)(CCCCN)C(=O)O; Ac4c = NC1(C(=O)O)CCC1; AEEA = NCCOCCOCC(=O)O; Ac3c = NC1(C(=O)O)CC1; Aib = CC(C)(N)C(=O)O

Columns and labels:
Assay in all cases: cell-based or functional assay
[1] = target: human glucagon receptor (human, UniProt P47871 26-477)
[2] = target: human glucagon-like peptide-1 receptor (human, UniProt P43220 24-463)
[3] = target: T1, human glucose-dependent insulinotropic polypeptide receptor (human, UniProt P48546 22-466)
T1 sequence (looked up): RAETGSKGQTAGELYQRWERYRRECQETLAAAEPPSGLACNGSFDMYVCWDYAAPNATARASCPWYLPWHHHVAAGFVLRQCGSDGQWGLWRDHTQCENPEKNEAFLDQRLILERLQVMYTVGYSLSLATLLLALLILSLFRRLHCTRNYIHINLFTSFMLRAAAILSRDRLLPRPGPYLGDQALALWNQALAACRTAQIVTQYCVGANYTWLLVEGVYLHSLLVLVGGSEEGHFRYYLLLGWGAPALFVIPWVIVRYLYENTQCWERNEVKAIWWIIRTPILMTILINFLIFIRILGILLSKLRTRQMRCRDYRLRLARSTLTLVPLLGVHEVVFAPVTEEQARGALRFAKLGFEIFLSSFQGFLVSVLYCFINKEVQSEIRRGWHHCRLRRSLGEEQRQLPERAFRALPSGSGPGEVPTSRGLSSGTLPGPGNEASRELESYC

[4] = target: T1, human glucose-dependent insulinotropic …; remark: listed apart in the source

human glucagon receptor, sequence (P47871 26-477): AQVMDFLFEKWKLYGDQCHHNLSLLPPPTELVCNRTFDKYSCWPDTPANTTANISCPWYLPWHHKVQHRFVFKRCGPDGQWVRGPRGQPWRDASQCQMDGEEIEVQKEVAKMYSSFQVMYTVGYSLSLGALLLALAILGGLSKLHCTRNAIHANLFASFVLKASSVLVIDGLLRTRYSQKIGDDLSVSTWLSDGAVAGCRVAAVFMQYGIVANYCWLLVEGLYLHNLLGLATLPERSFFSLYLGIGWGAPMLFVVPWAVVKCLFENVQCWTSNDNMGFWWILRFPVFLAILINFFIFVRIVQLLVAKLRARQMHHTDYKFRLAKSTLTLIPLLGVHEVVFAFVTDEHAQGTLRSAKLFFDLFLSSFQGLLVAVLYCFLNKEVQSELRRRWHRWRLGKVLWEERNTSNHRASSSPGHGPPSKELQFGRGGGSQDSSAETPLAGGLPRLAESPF

B1: Compound No. 0145 (peptide)
peptide: H[Aib]HGTFTSDLSILLEK([AEEA-AEEA-γGlu-C20 diacid])QAA[Ac4c]EFVEWLLA[dE]GPSSGAPPPS-NH2
modifications: N-terminus assumed
SMILES: CC[C@H](C)[C@H](NC(=O)[C@H](CO)NC(=O)[C@H](CC(C)C)NC(=O)[C@H](CC(=O)O)NC(=O)[C@H](CO)NC(=O)[C@@H](NC(=O)[C@H](Cc1ccccc1)NC(=O)[C@@H](NC(=O)CNC(=O)[C@H](Cc1c[nH]cn1)NC(=O)C(C)(C)NC(=O)[C@@H](N)Cc1c[nH]cn1)[C@@H](C)O)[C@@H](C)O)C(=O)N[C@@H](CC(C)C)C(=O)N[C@@H](CC(C)C)C(=O)N[C@@H](CCC(=O)O)C(=O)N[C@@H](CCCCNC(=O)COCCOCCNC(=O)COCCOCCNC(=O)CC[C@H](NC(=O)CCCCCCCCCCCCCCCCCCC(=O)O)C(=O)O)C(=O)N[C@@H](CCC(N)=O)C(=O)N[C@@H](C)C(=O)N[C@@H](C)C(=O)NC1(C(=O)N[C@@H](CCC(=O)O)C(=O)N[C@@H](Cc2ccccc2)C(=O)N[C@H](C(=O)N[C@@H](CCC(=O)O)C(=O)N[C@@H](Cc2c[nH]c3ccccc23)C(=O)N[C@@H](CC(C)C)C(=O)N[C@@H](CC(C)C)C(=O)N[C@@H](C)C(=O)N[C@H](CCC(=O)O)C(=O)NCC(=O)N2CCC[C@H]2C(=O)N[C@@H](CO)C(=O)N[C@@H](CO)C(=O)NCC(=O)N[C@@H](C)C(=O)N2CCC[C@H]2C(=O)N2CCC[C@H]2C(=O)N2CCC[C@H]2C(=O)N[C@@H](CO)C(N)=O)C(C)C)CCC1
[1]
  Activity against human GCGR (EC50 nM): 0.143 nM
[2]
  Activity against human GLP-1R (EC50 nM): 0.057 nM
[3]
  Activity against human GIPR (EC50 nM): 0.003 nM

B2: Compound No. 0146 (peptide)
peptide: H[Aib]HGTFTSDLSILLEK([AEEA-AEEA-γGlu-C20 diacid])KAA[Ac3c]EFVEWLLA[dE]GPSSGAPPPS-NH2
modifications: N-terminus assumed
SMILES: CC[C@H](C)[C@H](NC(=O)[C@H](CO)NC(=O)[C@H](CC(C)C)NC(=O)[C@H](CC(=O)O)NC(=O)[C@H](CO)NC(=O)[C@@H](NC(=O)[C@H](Cc1ccccc1)NC(=O)[C@@H](NC(=O)CNC(=O)[C@H](Cc1c[nH]cn1)NC(=O)C(C)(C)NC(=O)[C@@H](N)Cc1c[nH]cn1)[C@@H](C)O)[C@@H](C)O)C(=O)N[C@@H](CC(C)C)C(=O)N[C@@H](CC(C)C)C(=O)N[C@@H](CCC(=O)O)C(=O)N[C@@H](CCCCNC(=O)COCCOCCNC(=O)COCCOCCNC(=O)CC[C@H](NC(=O)CCCCCCCCCCCCCCCCCCC(=O)O)C(=O)O)C(=O)N[C@@H](CCCCN)C(=O)N[C@@H](C)C(=O)N[C@@H](C)C(=O)NC1(C(=O)N[C@@H](CCC(=O)O)C(=O)N[C@@H](Cc2ccccc2)C(=O)N[C@H](C(=O)N[C@@H](CCC(=O)O)C(=O)N[C@@H](Cc2c[nH]c3ccccc23)C(=O)N[C@@H](CC(C)C)C(=O)N[C@@H](CC(C)C)C(=O)N[C@@H](C)C(=O)N[C@H](CCC(=O)O)C(=O)NCC(=O)N2CCC[C@H]2C(=O)N[C@@H](CO)C(=O)N[C@@H](CO)C(=O)NCC(=O)N[C@@H](C)C(=O)N2CCC[C@H]2C(=O)N2CCC[C@H]2C(=O)N2CCC[C@H]2C(=O)N[C@@H](CO)C(N)=O)C(C)C)CC1
[1]
  Activity against human GCGR (EC50 nM): 0.146 nM
[2]
  Activity against human GLP-1R (EC50 nM): 0.033 nM
[3]
  Activity against human GIPR (EC50 nM): 0.009 nM

B3: Compound No. 0147 (peptide)
peptide: H[Aib]HGTFTSDLSILLEK([AEEA-AEEA-γGlu-C20 diacid])KAA[Ac4c]EFVEWLLA[dE]GPSSGAPPPS-NH2
modifications: N-terminus assumed
SMILES: CC[C@H](C)[C@H](NC(=O)[C@H](CO)NC(=O)[C@H](CC(C)C)NC(=O)[C@H](CC(=O)O)NC(=O)[C@H](CO)NC(=O)[C@@H](NC(=O)[C@H](Cc1ccccc1)NC(=O)[C@@H](NC(=O)CNC(=O)[C@H](Cc1c[nH]cn1)NC(=O)C(C)(C)NC(=O)[C@@H](N)Cc1c[nH]cn1)[C@@H](C)O)[C@@H](C)O)C(=O)N[C@@H](CC(C)C)C(=O)N[C@@H](CC(C)C)C(=O)N[C@@H](CCC(=O)O)C(=O)N[C@@H](CCCCNC(=O)COCCOCCNC(=O)COCCOCCNC(=O)CC[C@H](NC(=O)CCCCCCCCCCCCCCCCCCC(=O)O)C(=O)O)C(=O)N[C@@H](CCCCN)C(=O)N[C@@H](C)C(=O)N[C@@H](C)C(=O)NC1(C(=O)N[C@@H](CCC(=O)O)C(=O)N[C@@H](Cc2ccccc2)C(=O)N[C@H](C(=O)N[C@@H](CCC(=O)O)C(=O)N[C@@H](Cc2c[nH]c3ccccc23)C(=O)N[C@@H](CC(C)C)C(=O)N[C@@H](CC(C)C)C(=O)N[C@@H](C)C(=O)N[C@H](CCC(=O)O)C(=O)NCC(=O)N2CCC[C@H]2C(=O)N[C@@H](CO)C(=O)N[C@@H](CO)C(=O)NCC(=O)N[C@@H](C)C(=O)N2CCC[C@H]2C(=O)N2CCC[C@H]2C(=O)N2CCC[C@H]2C(=O)N[C@@H](CO)C(N)=O)C(C)C)CCC1
[1]
  Activity against human GCGR (EC50 nM): 0.041 nM
[2]
  Activity against human GLP-1R (EC50 nM): 0.035 nM
[3]
  Activity against human GIPR (EC50 nM): 0.005 nM

B4: Compound No. 0148 (peptide)
peptide: H[Aib]HGTFTSDLSILLEK([AEEA-AEEA-γGlu-C20 diacid])QAA[Ac3c]EFVEWLLA[dE]GPSSGAPPPS-NH2
modifications: N-terminus assumed
SMILES: CC[C@H](C)[C@H](NC(=O)[C@H](CO)NC(=O)[C@H](CC(C)C)NC(=O)[C@H](CC(=O)O)NC(=O)[C@H](CO)NC(=O)[C@@H](NC(=O)[C@H](Cc1ccccc1)NC(=O)[C@@H](NC(=O)CNC(=O)[C@H](Cc1c[nH]cn1)NC(=O)C(C)(C)NC(=O)[C@@H](N)Cc1c[nH]cn1)[C@@H](C)O)[C@@H](C)O)C(=O)N[C@@H](CC(C)C)C(=O)N[C@@H](CC(C)C)C(=O)N[C@@H](CCC(=O)O)C(=O)N[C@@H](CCCCNC(=O)COCCOCCNC(=O)COCCOCCNC(=O)CC[C@H](NC(=O)CCCCCCCCCCCCCCCCCCC(=O)O)C(=O)O)C(=O)N[C@@H](CCC(N)=O)C(=O)N[C@@H](C)C(=O)N[C@@H](C)C(=O)NC1(C(=O)N[C@@H](CCC(=O)O)C(=O)N[C@@H](Cc2ccccc2)C(=O)N[C@H](C(=O)N[C@@H](CCC(=O)O)C(=O)N[C@@H](Cc2c[nH]c3ccccc23)C(=O)N[C@@H](CC(C)C)C(=O)N[C@@H](CC(C)C)C(=O)N[C@@H](C)C(=O)N[C@H](CCC(=O)O)C(=O)NCC(=O)N2CCC[C@H]2C(=O)N[C@@H](CO)C(=O)N[C@@H](CO)C(=O)NCC(=O)N[C@@H](C)C(=O)N2CCC[C@H]2C(=O)N2CCC[C@H]2C(=O)N2CCC[C@H]2C(=O)N[C@@H](CO)C(N)=O)C(C)C)CC1
[1]
  Activity against human GCGR (EC50 nM): 0.549 nM
[2]
  Activity against human GLP-1R (EC50 nM): 0.06 nM
[3]
  Activity against human GIPR (EC50 nM): 0.006 nM

B5: Compound No. 0117 (peptide)
peptide: H[Aib]HGTFTSDYS[αMeK]LLEK([AEEA-AEEA-γGlu-C20 diacid])QAAQEFVEWLLAGGPSSGAPPPS-NH2
modifications: N-terminus assumed
SMILES: CC(C)C[C@H](NC(=O)[C@H](CC(C)C)NC(=O)[C@H](Cc1c[nH]c2ccccc12)NC(=O)[C@H](CCC(=O)O)NC(=O)[C@@H](NC(=O)[C@H](Cc1ccccc1)NC(=O)[C@H](CCC(=O)O)NC(=O)[C@H](CCC(N)=O)NC(=O)[C@H](C)NC(=O)[C@H](C)NC(=O)[C@H](CCC(N)=O)NC(=O)[C@H](CCCCNC(=O)COCCOCCNC(=O)COCCOCCNC(=O)CC[C@H](NC(=O)CCCCCCCCCCCCCCCCCCC(=O)O)C(=O)O)NC(=O)[C@H](CCC(=O)O)NC(=O)[C@H](CC(C)C)NC(=O)[C@H](CC(C)C)NC(=O)[C@](C)(CCCCN)NC(=O)[C@H](CO)NC(=O)[C@H](Cc1ccc(O)cc1)NC(=O)[C@H](CC(=O)O)NC(=O)[C@H](CO)NC(=O)[C@@H](NC(=O)[C@H](Cc1ccccc1)NC(=O)[C@@H](NC(=O)CNC(=O)[C@H](Cc1c[nH]cn1)NC(=O)C(C)(C)NC(=O)[C@@H](N)Cc1c[nH]cn1)[C@@H](C)O)[C@@H](C)O)C(C)C)C(=O)N[C@@H](C)C(=O)NCC(=O)NCC(=O)N1CCC[C@H]1C(=O)N[C@@H](CO)C(=O)N[C@@H](CO)C(=O)NCC(=O)N[C@@H](C)C(=O)N1CCC[C@H]1C(=O)N1CCC[C@H]1C(=O)N1CCC[C@H]1C(=O)N[C@@H](CO)C(N)=O
[4]
  Activity against human GIPR (EC50 nM): 0.003 nM

B6: Compound No. 0118 (peptide)
peptide: H[Aib]HGTFTSDYS[αMeK]LLEK([AEEA-AEEA-γGlu-C17 diacid])IAAQEFVEWLLAGGPSSGAPPPS-NH2
modifications: N-terminus assumed
SMILES: CC[C@H](C)[C@H](NC(=O)[C@H](CCCCNC(=O)COCCOCCNC(=O)COCCOCCNC(=O)CC[C@H](NC(=O)CCCCCCCCCCCCCCCC(=O)O)C(=O)O)NC(=O)[C@H](CCC(=O)O)NC(=O)[C@H](CC(C)C)NC(=O)[C@H](CC(C)C)NC(=O)[C@](C)(CCCCN)NC(=O)[C@H](CO)NC(=O)[C@H](Cc1ccc(O)cc1)NC(=O)[C@H](CC(=O)O)NC(=O)[C@H](CO)NC(=O)[C@@H](NC(=O)[C@H](Cc1ccccc1)NC(=O)[C@@H](NC(=O)CNC(=O)[C@H](Cc1c[nH]cn1)NC(=O)C(C)(C)NC(=O)[C@@H](N)Cc1c[nH]cn1)[C@@H](C)O)[C@@H](C)O)C(=O)N[C@@H](C)C(=O)N[C@@H](C)C(=O)N[C@@H](CCC(N)=O)C(=O)N[C@@H](CCC(=O)O)C(=O)N[C@@H](Cc1ccccc1)C(=O)N[C@H](C(=O)N[C@@H](CCC(=O)O)C(=O)N[C@@H](Cc1c[nH]c2ccccc12)C(=O)N[C@@H](CC(C)C)C(=O)N[C@@H](CC(C)C)C(=O)N[C@@H](C)C(=O)NCC(=O)NCC(=O)N1CCC[C@H]1C(=O)N[C@@H](CO)C(=O)N[C@@H](CO)C(=O)NCC(=O)N[C@@H](C)C(=O)N1CCC[C@H]1C(=O)N1CCC[C@H]1C(=O)N1CCC[C@H]1C(=O)N[C@@H](CO)C(N)=O)C(C)C
[4]
  Activity against human GIPR (EC50 nM): 0.004 nM
